This is an account of results in the RNAGym collection of RNA variant scans (doi:10.7554/elife.80360).

B1: HDV Ribozyme (parent)
chain: GGCCGGCAUGGUCCCAGCCUCCUCGCUGGCGCCGGCUGGGCAACAUUCCGAGGGGACCGUCCCCUCGGUAAUGGCGAAUGGGACCCA

This data set covers variants of B1. In words: self-cleavage, relative activity (ratio to wild type); higher = more cleavage; co-transcriptional.
With GGCCGGCUUGGCCCCAGCCUCCUCGCUGGCGCCGGCUGGGCAACAUUCCGAGGGGACCGUCCCCUCGGUAAUGGCGAAUGGGACCCA [A8U U12C], the self-cleavage amounted to 0.227.

For the variant GGCCGGCGUGGUCCCAGCCUCCUCGCUGGCGCCGGCUGGGCAACAUUCCGAGGGGACCGUCCCCUCGGUAAUGGCGAAGGGGACCCA [A8G U79G], the self-cleavage came out at 0.332.

Turning to GGCCGGCUUGGUCCCAGCCUCCUCGCUGGCGCCGGCUGGGCACCAUUCCGAGGGGACCGUCCCCUCGGUAAUGGCGAAUGGGACCCA [A8U A43C], the self-cleavage worked out at 0.453.

On to GGCCGGCUUGGUCCCAGCCUCCUCGCUGGCGCCGGCUGGGCAUCAUUCCGAGGGGACCGUCCCCUCGGUAAUGGCGAAUGGGACCCA [A8U A43U], for which the self-cleavage stood at 0.125.

In the case of GGCCGGCUUGGUCCCAGCCUCCUCGCUGGCGCCGGCUGGGCAACAUUCCGAGGGGACCGUCCCCUCGGUAAUGGCGAAUGGGACUCA [A8U C85U], the self-cleavage came to 1.09.

In the case of GGCCGGCUUGGUCCCAGCCUCCUCGCUGGCGCCGGCUGGGCAACAUUCCGAGGGGACCGUCCCCUCGGUAAUGGCGAAUGGGACGCA [A8U C85G], the self-cleavage came to 0.883.

As for GGCCGGCUUGGUCCCAGCCUCCUCGCUGGCGCCGGCUGGGCAACAUUCCGAGGGGACCGUCCCCUCGGUAAUGGCGAAUGGGACACA [A8U C85A], the self-cleavage is 0.959.

For GGCCGGCGUGGUCCCAGCCUCCUCGCUGGCGCCGGCUGGGCAACAUUCCGAGGGGACCGUCCCCUCGGUAAUGGCGAAUAGGACCCA [A8G G80A], the self-cleavage stood at 0.148.

With GGCCGGCUUGGUCCCAGCCUCCUCGCUGGCGCCGGCUGGGCAACAUUCCGAGGGGACCGUCCCCUCGGUAAUGGCGAAUGGGUCCCA [A8U A83U], the self-cleavage turned out to be 0.26.

Take GGCCGGCUUGGUCCCAGCCUCCUCGCUGGCGCCGGCUGGGCAACAUUCCGAGGGGACCGUCCCCUCGGUAAUGGCGAAUGGAACCCA [A8U G82A]: the self-cleavage turned out to be 0.

With GGCCGGCGUGGUCCCAGCCUCCUCGCUGGCGCCGGCUGGGCAACAUUCCGAGGGGACCGUCCCCUCGGUAAUGGCGAAUGGCACCCA [A8G G82C], the self-cleavage is 0.128.

As for GGCCGGCUUGGUCCCAGCCUCCUCACUGGCGCCGGCUGGGCAACAUUCCGAGGGGACCGUCCCCUCGGUAAUGGCGAAUGGGACCCA [A8U G25A], the self-cleavage turned out to be 0.

GGCCGGCUUGGUCCCAGCCUCCUCGCUGGCGCCGGCUGGGCAACAUUCCGAGGCGACCGUCCCCUCGGUAAUGGCGAAUGGGACCCA [A8U G54C]: the self-cleavage stood at 0.538.

GGCCGGCUUGCUCCCAGCCUCCUCGCUGGCGCCGGCUGGGCAACAUUCCGAGGGGACCGUCCCCUCGGUAAUGGCGAAUGGGACCCA [A8U G11C]: the self-cleavage amounted to 0.0978.

Turning to GGCCGGCUUGGUCCCAGCCUCCUCGCUGGCGCCGGCUGGGCAACAUUCCGCGGGGACCGUCCCCUCGGUAAUGGCGAAUGGGACCCA [A8U A51C], the self-cleavage turned out to be 0.633.

With GGCCGGCUUGGUCCCAGCCUCCUCGCUGGCGCCGGCUGGGCAACAUUCCGAGGGGACCGUCCCGUCGGUAAUGGCGAAUGGGACCCA [A8U C64G], the self-cleavage worked out at 0.856.

As for GGCCGGCGUGGUCCCAGCCUCCUCGCUGGCGCCGGCUGGGCAACAUUCCGAGGGGACCGUCCCCGCGGUAAUGGCGAAUGGGACCCA [A8G U65G], the self-cleavage was determined as 0.906.

GGCCGGCUUGGUCCCAGCCUCCUCGCUGGCGCCGGCUGGGCAACAUUCCAAGGGGACCGUCCCCUCGGUAAUGGCGAAUGGGACCCA [A8U G50A]: the self-cleavage stood at 0.739.

For the variant GGCCGGCUUGGUCCCAGCCUCCUCGCUGGCGCCGGCUGGGCAACAUUCCGAGGGGACCGUCCCCUCGGUAAUGACGAAUGGGACCCA [A8U G74A], the self-cleavage is 0.115.

For GGCCGGCGUGGUCCCAGCCUCCUCGCUGGCGCCGGCUGGGCAACAUUCCGAGGGGACCGUCCCCUCGGUAAUGGCGAAUGUGACCCA [A8G G81U], the self-cleavage is 0.256.

With GGCCGGCGUGGUCCCAGCCUCCUCGCUGGCGCCGGCUGGGCAACAUUCCGAGGGGACCGUCCCCUCGGUAAUGGCGAAUGCGACCCA [A8G G81C], the self-cleavage was 0.115.

Take GGCCGGCGUGGUCCCAGCCUCCUCGCUGGCGCCGGCUGGGCAACAUUCCGAGGGGACCGACCCCUCGGUAAUGGCGAAUGGGACCCA [A8G U60A]: the self-cleavage was found to be 0.95.

Take GGCCGGCUUGGUCCCAGCCUCCUCGCUGGGGCCGGCUGGGCAACAUUCCGAGGGGACCGUCCCCUCGGUAAUGGCGAAUGGGACCCA [A8U C30G]: the self-cleavage came out at 0.0369.

On to GGCCGGCUUGGUCCCAGCCUCCUCGCUGGCGCCGGCUGGGCAACAUUCCGAGGGGACCGUCCCCUCGGUAAUGGCGAAUGGGACCCC [A8U A87C], for which the self-cleavage worked out at 0.845.

GGCCGGCUUGGUCCCAGCCUCCUCGCUGGCGCCGGCUGGGCAACAUUCCGAGGGGACCGUCCCCUCGGUAAUGGCGAAUGGGACCCG [A8U A87G]: the self-cleavage worked out at 0.754.

Consider GGCCGGCUUGGUCCCAGCCUCCUCGCUGGCGCCGGCUGGGCAACAUUCCGAGGGGACCGUCCCCUCGAUAAUGGCGAAUGGGACCCA [A8U G68A], for which the self-cleavage was 0.511.

For the variant GGCCGGCUUGGUCCCUGCCUCCUCGCUGGCGCCGGCUGGGCAACAUUCCGAGGGGACCGUCCCCUCGGUAAUGGCGAAUGGGACCCA [A8U A16U], the self-cleavage turned out to be 0.962.

For GGCCGGCUUGGUCCCAGCCUCCUCGCUGGCGCCGGCUGGGCAACAUUCCGAGGGCACCGUCCCCUCGGUAAUGGCGAAUGGGACCCA [A8U G55C], the self-cleavage worked out at 1.04.

As to GGCCGGCUUGGUCCCAGCCUCCUCGCUGGCGCCGGCUGGGCAACAUUCCGAGGGGACCGUCCCCUCGGUAAUGGCGACUGGGACCCA [A8U A78C], the self-cleavage came out at 0.128.

As to GGCCGGCUUGGUCCCAGCCUCCUCGCUGGCGCCGGCUGGGCAACAUUCCGAGGGGACCGUCCCCUCGGUAAUGGGGAAUGGGACCCA [A8U C75G], the self-cleavage came to 0.142.

Regarding GGCCGGCUUGGUCACAGCCUCCUCGCUGGCGCCGGCUGGGCAACAUUCCGAGGGGACCGUCCCCUCGGUAAUGGCGAAUGGGACCCA [A8U C14A], the self-cleavage is 0.192.

Regarding GGCCGGCUUGGUCCCAGCCUCCUCGCUGGCGCCGUCUGGGCAACAUUCCGAGGGGACCGUCCCCUCGGUAAUGGCGAAUGGGACCCA [A8U G35U], the self-cleavage was 0.262.
